Source: patent US20160058848A1

How the values were obtained:
[1] = target: human corin mutant R539C (human) (UniProt Q9Y5Q5); test: cell-based or functional assay
[2] = target: human corin mutant S472G (human) (UniProt Q9Y5Q5); test: cell-based or functional assay
[3] = target: human corin mutant K317E (human) (UniProt Q9Y5Q5); test: cell-based or functional assay
[4] = target: T1, recombinant human corin wild-type (WT), Q9Y5Q5
T1 chain: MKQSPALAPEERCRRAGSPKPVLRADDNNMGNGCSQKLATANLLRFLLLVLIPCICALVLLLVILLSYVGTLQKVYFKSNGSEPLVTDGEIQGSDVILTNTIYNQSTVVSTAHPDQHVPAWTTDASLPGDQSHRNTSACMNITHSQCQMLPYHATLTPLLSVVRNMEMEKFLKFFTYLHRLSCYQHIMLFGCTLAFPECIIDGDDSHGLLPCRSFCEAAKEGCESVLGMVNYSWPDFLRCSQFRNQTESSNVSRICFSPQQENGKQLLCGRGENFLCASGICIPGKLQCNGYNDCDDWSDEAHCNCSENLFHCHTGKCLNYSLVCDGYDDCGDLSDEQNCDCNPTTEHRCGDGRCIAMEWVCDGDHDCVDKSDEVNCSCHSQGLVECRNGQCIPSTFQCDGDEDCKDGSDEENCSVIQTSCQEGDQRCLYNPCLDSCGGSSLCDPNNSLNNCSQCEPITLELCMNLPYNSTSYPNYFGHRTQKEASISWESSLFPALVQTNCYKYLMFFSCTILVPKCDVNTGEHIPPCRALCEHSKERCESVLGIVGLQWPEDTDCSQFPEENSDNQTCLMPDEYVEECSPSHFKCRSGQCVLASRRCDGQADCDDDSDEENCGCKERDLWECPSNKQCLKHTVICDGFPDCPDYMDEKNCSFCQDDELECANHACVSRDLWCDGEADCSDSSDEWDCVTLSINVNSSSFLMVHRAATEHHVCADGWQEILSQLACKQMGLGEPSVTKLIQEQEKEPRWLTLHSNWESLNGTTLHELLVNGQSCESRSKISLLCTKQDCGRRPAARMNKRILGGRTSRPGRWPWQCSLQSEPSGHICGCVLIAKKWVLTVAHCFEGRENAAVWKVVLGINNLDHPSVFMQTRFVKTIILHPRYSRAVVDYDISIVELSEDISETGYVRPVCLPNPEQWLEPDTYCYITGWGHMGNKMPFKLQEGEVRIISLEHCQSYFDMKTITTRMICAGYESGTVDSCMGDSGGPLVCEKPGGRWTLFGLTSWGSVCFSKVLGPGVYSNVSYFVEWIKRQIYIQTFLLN

[5] = target: T2, human corin variant T555I/Q568P, Q9Y5Q5
T2 chain: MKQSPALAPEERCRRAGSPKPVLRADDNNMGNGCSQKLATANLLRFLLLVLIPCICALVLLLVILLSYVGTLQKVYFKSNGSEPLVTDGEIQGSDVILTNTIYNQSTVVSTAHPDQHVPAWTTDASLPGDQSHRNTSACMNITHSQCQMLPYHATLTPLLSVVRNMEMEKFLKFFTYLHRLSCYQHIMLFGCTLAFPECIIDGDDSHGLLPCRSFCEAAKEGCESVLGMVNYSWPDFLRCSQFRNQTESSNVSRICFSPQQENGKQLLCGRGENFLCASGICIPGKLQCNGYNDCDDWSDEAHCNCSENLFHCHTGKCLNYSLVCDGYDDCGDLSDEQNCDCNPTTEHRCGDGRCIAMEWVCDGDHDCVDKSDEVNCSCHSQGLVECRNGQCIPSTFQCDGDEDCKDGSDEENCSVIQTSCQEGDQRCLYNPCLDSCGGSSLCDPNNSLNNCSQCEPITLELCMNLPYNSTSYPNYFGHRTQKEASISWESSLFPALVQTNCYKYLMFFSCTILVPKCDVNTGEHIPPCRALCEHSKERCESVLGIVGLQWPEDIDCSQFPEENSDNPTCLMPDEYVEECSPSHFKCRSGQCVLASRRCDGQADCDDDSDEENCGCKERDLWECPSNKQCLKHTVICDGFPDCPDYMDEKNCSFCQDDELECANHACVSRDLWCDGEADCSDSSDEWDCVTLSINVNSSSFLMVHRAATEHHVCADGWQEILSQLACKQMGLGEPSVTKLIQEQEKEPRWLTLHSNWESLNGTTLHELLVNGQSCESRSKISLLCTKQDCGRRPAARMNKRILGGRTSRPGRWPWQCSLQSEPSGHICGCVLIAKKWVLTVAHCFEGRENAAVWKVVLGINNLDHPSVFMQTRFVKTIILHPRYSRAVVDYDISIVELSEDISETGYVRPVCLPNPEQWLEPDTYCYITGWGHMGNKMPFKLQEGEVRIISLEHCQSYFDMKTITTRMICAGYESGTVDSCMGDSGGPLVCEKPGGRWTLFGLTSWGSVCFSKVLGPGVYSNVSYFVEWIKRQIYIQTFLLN

B1: recombinant human proprotein convertase subtilisin/kexin-6 (PCSK6) with a C-terminal flag tag (protein)
chain: QVRSDPQALYFNDPIWSNMWYLHCGDKNSRCRSEMNVQAAWKRGYTGKNVVVTILDDGIERNHPDLAPNYDSYASYDVNGNDYDPSPRYDASNENKHGTRCAGEVAASANNSYCIVGIAYNAKIGGIRMLDGDVTDVVEAKSLGIRPNYIDIYSASWGPDDDGKTVDGPGRLAKQAFEYGIKKGRQGLGSIFVWASGNGGREGDYCSCDGYTNSIYTISVSSATENGYKPWYLEECASTLATTYSSGAFYERKIVTTDLRQRCTDGHTGTSVSAPMVAGIIALALEANSQLTWRDVQHLLVKTSRPAHLKASDWKVNGAGHKVSHFYGFGLVDAEALVVEAKKWTAVPSQHMCVAASDKRPRSIPLVQVLRTTALTSACAEHSDQRVVYLEHVVVRTSISHPRRGDLQIYLVSPSGTKSQLLAKRLLDLSNEGFTNWEFMTVHCWGEKAEGQWTLEIQDLPSQVRNPEKQGKLKEWSLILYGTAEHPYHTFSAHQSRSRMLELSAPELEPPKAALSPSQVEVPEDEEDYTAQSTPGSANILQTSVCHPECGDKGCDGPNADQCLNCVHFSLGSVKTSRKCVSVCPLGYFGDTAARRCRRCHKGCETCSSRAATQCLSCRRGFYHHQEMNTCVTLCPAGFYADESQKNCLKCHPSCKKCVDEPEKCTVCKEGFSLARGSCIPDCEPGTYFDSELIRCGECHHTCGTCVGPGREECIHCAKNFHFHDWKCVPACGEGFYPEEMPGLPHKVCRRCDENCLSCAGSSRNCSRCKTGFTQLGTSCITNHTCSNADETFCEMVKSNRLCERKLFIQFCCRTCLLAG
Q: How did the reduction in PCSK6-mediated corin activation compared with WT corin (Western blot, densitometry) (% reduction vs WT corin) [1] turn out when B1 was run?
A: 62

Q: And the reduction in PCSK6-mediated corin activation compared with WT corin (Western blot, densitometry) (% reduction vs WT corin) [2]?
A: 99

Q: What about the reduction in PCSK6-mediated corin activation compared with WT corin (Western blot, densitometry) (% reduction vs WT corin) [3] of the same binder?
A: 39

Q: And the “PCSK6-mediated activation cleavage (Western blot, densitometry)” value [4]?
A: PCSK6-mediated activation cleavage was detected in corin WT and variants T555I or Q568P, but not variant T555I/Q568P

Q: And the “PCSK6-mediated activation cleavage (Western blot, densitometry)” value [5]?
A: PCSK6-mediated activation cleavage was detected in corin WT and variants T555I or Q568P, but not variant T555I/Q568P
